In article PMC6555819, “Comprehensive study of nuclear receptor DNA binding provides a revised framework for understanding receptor specificity”:
Changes are numbered by the printed parent chain.

B1: NRC3_wobSeed40_DR1_T12C_o1 (dsDNA)
DNA 1: GCTAGCCTAGGCCATGGGCCAGTATACCACGCGAACGCGATTGACAGCGTAGAATGAAGG
DNA 2: CCTTCATTCTACGCTGTCAATCGCGTTCGCGTGGTATACTGGCCCATGGCCTAGGCTAGC
B2: NRC3_wobSeed138_DR5_G10A_o1 (dsDNA)
DNA 1: GCGATACAGAGTCAGCTAGAGGCCAGAGTATGGAAAGCGATTGACAGCGTAGAATGAAGG
DNA 2: CCTTCATTCTACGCTGTCAATCGCTTTCCATACTCTGGCCTCTAGCTGACTCTGTATCGC
B3: NRC3_wobSeed76_DR3_G19T_o1 (dsDNA)
DNA 1: GCCCTACTGGGCCAAAAATGTCATTGATGCCGATAAGCGATTGACAGCGTAGAATGAAGG
DNA 2: CCTTCATTCTACGCTGTCAATCGCTTATCGGCATCAATGACATTTTTGGCCCAGTAGGGC
B4: NRC3_wobSeed93_DR3_G10T_o1 (dsDNA)
DNA 1: GCAGTCAAATTTCATCTAGGTAACGTAAGATATGCTGCGATTGACAGCGTAGAATGAAGG
DNA 2: CCTTCATTCTACGCTGTCAATCGCAGCATATCTTACGTTACCTAGATGAAATTTGACTGC
B5: NRC3_wobSeed136_DR5_A14C_o1 (dsDNA)
DNA 1: GCTAGCCTAGGTCCTTCAGGGGCCAGTATAGAAAGCGCGATTGACAGCGTAGAATGAAGG
DNA 2: CCTTCATTCTACGCTGTCAATCGCGCTTTCTATACTGGCCCCTGAAGGACCTAGGCTAGC
B6: NRC3_wobSeed114_DR4_T12A_o1 (dsDNA)
DNA 1: GCAATACAGGGACATCGTAGGCCAGAGTACGCACAGGCGATTGACAGCGTAGAATGAAGG
DNA 2: CCTTCATTCTACGCTGTCAATCGCCTGTGCGTACTCTGGCCTACGATGTCCCTGTATTGC
B7: NRC3_wobSeed41_DR1_G11C_o1 (dsDNA)
DNA 1: GCATATGTAGCTTAAGGGTCATTCAGGTTGGTTCGCGCGATTGACAGCGTAGAATGAAGG
DNA 2: CCTTCATTCTACGCTGTCAATCGCGCGAACCAACCTGAATGACCCTTAAGCTACATATGC
B8: NRC3_wobSeed4_DR0_C13G_o1 (dsDNA)
DNA 1: GCCCTACTGGGCGAAGGTCATTGATCAGTCAAAGCAGCGATTGACAGCGTAGAATGAAGG
DNA 2: CCTTCATTCTACGCTGTCAATCGCTGCTTTGACTGATCAATGACCTTCGCCCAGTAGGGC
B9: NRC3_wobSeed111_DR4_G27T_o1 (dsDNA)
DNA 1: GCCGAACTAGGTCAGAACAGGACAGTTAAGGATGATGCGATTGACAGCGTAGAATGAAGG
DNA 2: CCTTCATTCTACGCTGTCAATCGCATCATCCTTAACTGTCCTGTTCTGACCTAGTTCGGC
B10: NRC3_wobSeed111_DR4_G21T_o1 (dsDNA)
DNA 1: B9 DNA 1 with G21T, T27G
DNA 2: B9 DNA 2 with A34C, C40A
B11: NRC3_wobSeed38_DR1_A14T_o1 (dsDNA)
DNA 1: GCCCTGCTAGGTCTATGGTCAGCTAAAGCAGCTCGCGCGATTGACAGCGTAGAATGAAGG
DNA 2: CCTTCATTCTACGCTGTCAATCGCGCGAGCTGCTTTAGCTGACCATAGACCTAGCAGGGC
B12: NRC3_wobSeed106_DR4_G25C_o1 (dsDNA)
DNA 1: GCCTCGAAAGGTCGGTTGAGGTGACTATACGGATAAGCGATTGACAGCGTAGAATGAAGG
DNA 2: CCTTCATTCTACGCTGTCAATCGCTTATCCGTATAGTCACCTCAACCGACCTTTCGAGGC
B13: NRC3_wobSeed100_DR4_C23A_o1 (dsDNA)
DNA 1: GCCCTACTGGGCCACGAAAGGTAATTGATTCAGTGAGCGATTGACAGCGTAGAATGAAGG
DNA 2: CCTTCATTCTACGCTGTCAATCGCTCACTGAATCAATTACCTTTCGTGGCCCAGTAGGGC
B14: NRC3_wobSeed30_DR1_G17A_o1 (dsDNA)
DNA 1: GCACTAGCAGGCCAAGAGTCACTCAAGATTAGTCCGGCGATTGACAGCGTAGAATGAAGG
DNA 2: CCTTCATTCTACGCTGTCAATCGCCGGACTAATCTTGAGTGACTCTTGGCCTGCTAGTGC
B15: NRC3_wobSeed21_DR0_A14T_o1 (dsDNA)
DNA 1: GCCGTCAAAGTTCTAGGTAACGTAACAGAAAGCAGCGCGATTGACAGCGTAGAATGAAGG
DNA 2: CCTTCATTCTACGCTGTCAATCGCGCTGCTTTCTGTTACGTTACCTAGAACTTTGACGGC
B16: NRC3_wobSeed69_DR2_A7C_o1 (dsDNA)
DNA 1: GCAGTCCAAGTTCACTAGGTAACGTAAGATTCAGCTGCGATTGACAGCGTAGAATGAAGG
DNA 2: CCTTCATTCTACGCTGTCAATCGCAGCTGAATCTTACGTTACCTAGTGAACTTGGACTGC
B17: NRC3_wobSeed69_DR2_A8T_o1 (dsDNA)
DNA 1: B16 DNA 1 with C7A, A8T
DNA 2: B16 DNA 2 with T53A, G54T
B18: NRC3_wobSeed124_DR5_T5G_o1 (dsDNA)
DNA 1: GCCCGACTGGGCCATTCAGAGGTCATTGATCATATGGCGATTGACAGCGTAGAATGAAGG
DNA 2: CCTTCATTCTACGCTGTCAATCGCCATATGATCAATGACCTCTGAATGGCCCAGTCGGGC
B19: NRC3_wobSeed124_DR5_T23A_o1 (dsDNA)
DNA 1: B18 DNA 1 with G5T, T23A
DNA 2: B18 DNA 2 with A38T, C56A
B20: NRC3_wobSeed15_DR0_G11C_o1 (dsDNA)
DNA 1: GCCGAACTAGCTCAAGGACAGTGAATCTCCGCACGCGCGATTGACAGCGTAGAATGAAGG
DNA 2: CCTTCATTCTACGCTGTCAATCGCGCGTGCGGAGATTCACTGTCCTTGAGCTAGTTCGGC
B21: NRC3_wobSeed86_DR3_A23G_o1 (dsDNA)
DNA 1: GCGCTGCTAGGTCAGGTTGGTCGGCTAACGGGTACGGCGATTGACAGCGTAGAATGAAGG
DNA 2: CCTTCATTCTACGCTGTCAATCGCCGTACCCGTTAGCCGACCAACCTGACCTAGCAGCGC
B22: NRC3_wobSeed86_DR3_C13A_o1 (dsDNA)
DNA 1: B21 DNA 1 with C13A, G23A
DNA 2: B21 DNA 2 with C38T, G48T
B23: NRC3_wobSeed34_DR1_A9T_o1 (dsDNA)
DNA 1: GCATCGAATGGTCGAAGGTGAGTATACCCACCCGAAGCGATTGACAGCGTAGAATGAAGG
DNA 2: CCTTCATTCTACGCTGTCAATCGCTTCGGGTGGGTATACTCACCTTCGACCATTCGATGC
B24: NRC3_wobSeed90_DR3_A14C_o1 (dsDNA)
DNA 1: GCCATACAGGGTCCGCTAGGCCAGAGTAGGGACGGCGCGATTGACAGCGTAGAATGAAGG
DNA 2: CCTTCATTCTACGCTGTCAATCGCGCCGTCCCTACTCTGGCCTAGCGGACCCTGTATGGC
B25: NRC3_wobSeed10_DR0_A7G_o1 (dsDNA)
DNA 1: GCATCGGAAGGTCGAGGTGAGTATAGAGAAAGGGAAGCGATTGACAGCGTAGAATGAAGG
DNA 2: CCTTCATTCTACGCTGTCAATCGCTTCCCTTTCTCTATACTCACCTCGACCTTCCGATGC
B26: NRC3_wobSeed98_DR4_G11C_o1 (dsDNA)
DNA 1: GCACTAGTTGCTCAGCTGAGGTCACACACAATTCGGGCGATTGACAGCGTAGAATGAAGG
DNA 2: CCTTCATTCTACGCTGTCAATCGCCCGAATTGTGTGTGACCTCAGCTGAGCAACTAGTGC
B27: NRC3_wobSeed66_DR2_G11A_o1 (dsDNA)
DNA 1: GCAATACAGGATCACTAGGCCAGAGTAGGTACGAATGCGATTGACAGCGTAGAATGAAGG
DNA 2: CCTTCATTCTACGCTGTCAATCGCATTCGTACCTACTCTGGCCTAGTGATCCTGTATTGC
B28: NRC3_wobSeed16_DR0_C13G_o1 (dsDNA)
DNA 1: GCCAGCCTAGGTGAGGGCCAGTATAGGAGGAACGTTGCGATTGACAGCGTAGAATGAAGG
DNA 2: CCTTCATTCTACGCTGTCAATCGCAACGTTCCTCCTATACTGGCCCTCACCTAGGCTGGC
B29: NRC3_wobSeed65_DR2_A5T_o1 (dsDNA)
DNA 1: GCATTTGTAGGTTATCGGGTCATTCAGTTTGCGCATGCGATTGACAGCGTAGAATGAAGG
DNA 2: CCTTCATTCTACGCTGTCAATCGCATGCGCAAACTGAATGACCCGATAACCTACAAATGC
B30: NRC3_wobSeed46_DR1_T26A_o1 (dsDNA)
DNA 1: GCTTACCAAGGTGAAAGGTCGTTGAAGCACGCCTTGGCGATTGACAGCGTAGAATGAAGG
DNA 2: CCTTCATTCTACGCTGTCAATCGCCAAGGCGTGCTTCAACGACCTTTCACCTTGGTAAGC
B31: NRC3_wobSeed46_DR1_T26G_o1 (dsDNA)
DNA 1: B30 DNA 1 with A26G
DNA 2: B30 DNA 2 with T35C
B32: NRC3_wobSeed28_DR1_A21C_o1 (dsDNA)
DNA 1: GCCCTACTGGGCCAAAGGTCCTTGATTCCAATGCTCGCGATTGACAGCGTAGAATGAAGG
DNA 2: CCTTCATTCTACGCTGTCAATCGCGAGCATTGGAATCAAGGACCTTTGGCCCAGTAGGGC
B33: NRC3_wobSeed89_DR3_T13A_o1 (dsDNA)
DNA 1: GCCTATGTAGGTAAAGGGGGTCATTCAGTTTGAAAGGCGATTGACAGCGTAGAATGAAGG
DNA 2: CCTTCATTCTACGCTGTCAATCGCCTTTCAAACTGAATGACCCCCTTTACCTACATAGGC

These binders were tested against RARb:RXRa (Homo sapiens, UniProt P10826;P19793 full;full) (assay: no ligand; PBM; 270 nM : 90 nM RXRa; PBS pH 7.4, 2% milk, 0.02% Triton X-100, 1 mM DTT, BSA, 0.4 mg/ml salmon testes DNA). Conditions: tags: His kept;His cleaved; copies: 1;1; label: surface-attached array probe.
Chain of RARb:RXRa (P10826 whole entry, chain 1 of 2): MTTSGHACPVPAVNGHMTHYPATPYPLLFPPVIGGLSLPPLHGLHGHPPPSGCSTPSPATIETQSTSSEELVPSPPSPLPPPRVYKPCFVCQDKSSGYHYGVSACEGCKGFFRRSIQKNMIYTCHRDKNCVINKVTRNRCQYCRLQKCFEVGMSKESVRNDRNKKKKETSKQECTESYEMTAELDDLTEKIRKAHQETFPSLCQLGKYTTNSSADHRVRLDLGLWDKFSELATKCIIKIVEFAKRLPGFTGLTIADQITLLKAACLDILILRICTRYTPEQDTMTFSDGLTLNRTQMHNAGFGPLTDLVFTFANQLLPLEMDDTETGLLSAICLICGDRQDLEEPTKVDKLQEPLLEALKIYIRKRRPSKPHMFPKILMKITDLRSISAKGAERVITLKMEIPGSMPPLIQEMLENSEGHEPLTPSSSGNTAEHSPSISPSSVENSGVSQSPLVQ
Chain of RARb:RXRa (P19793 whole entry, chain 2 of 2): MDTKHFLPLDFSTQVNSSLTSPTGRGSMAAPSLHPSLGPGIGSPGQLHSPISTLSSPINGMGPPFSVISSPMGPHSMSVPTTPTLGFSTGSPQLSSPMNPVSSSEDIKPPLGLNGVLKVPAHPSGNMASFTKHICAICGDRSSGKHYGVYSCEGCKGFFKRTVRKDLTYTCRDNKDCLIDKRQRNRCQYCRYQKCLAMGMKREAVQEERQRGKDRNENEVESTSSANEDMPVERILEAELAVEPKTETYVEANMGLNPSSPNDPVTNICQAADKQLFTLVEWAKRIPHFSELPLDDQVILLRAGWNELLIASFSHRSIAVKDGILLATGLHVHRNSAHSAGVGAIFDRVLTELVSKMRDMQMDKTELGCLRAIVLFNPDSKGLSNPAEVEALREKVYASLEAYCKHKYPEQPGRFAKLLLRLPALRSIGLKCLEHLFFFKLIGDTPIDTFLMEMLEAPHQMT
In short: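 Binding buffer was PBS pH 7.4 with 2% milk, 0.02% Triton X-100, 1 mM DTT, 0.2 mg/mL BSA and 0.4 mg/ml salmon testes DNA. In it, ligand-free nuclear receptor dimers were incubated 1 h on custom Agilent 4×180K protein-binding microarrays carrying double-stranded probes. Antibodies against each partner (one per run) detected binding, and z-scores were calculated against random background probes after regression normalization of scanned fluorescence.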

Binder	binding signal
B1	0.19 PBM z-score against 500 random probes
B2	0.27 PBM z-score against 500 random probes
B3	0.29 PBM z-score against 500 random probes
B4	0.23 PBM z-score against 500 random probes
B5	0.43 PBM z-score against 500 random probes
B6	0.47 PBM z-score against 500 random probes
B7	3.04 PBM z-score against 500 random probes
B8	3.03 PBM z-score against 500 random probes
B9	3.03 PBM z-score against 500 random probes
B10	3.01 PBM z-score against 500 random probes
B11	0.39 PBM z-score against 500 random probes
B12	3.02 PBM z-score against 500 random probes
B13	0.41 PBM z-score against 500 random probes
B14	0.46 PBM z-score against 500 random probes
B15	0.4 PBM z-score against 500 random probes
B16	3.03 PBM z-score against 500 random probes
B17	3.02 PBM z-score against 500 random probes

Binder	binding signal
B18	3.03 PBM z-score against 500 random probes
B19	0.46 PBM z-score against 500 random probes
B20	0.3 PBM z-score against 500 random probes
B21	3.01 PBM z-score against 500 random probes
B22	0.16 PBM z-score against 500 random probes
B23	0.4 PBM z-score against 500 random probes
B24	0.26 PBM z-score against 500 random probes
B25	3 PBM z-score against 500 random probes
B26	3.01 PBM z-score against 500 random probes
B27	0.18 PBM z-score against 500 random probes
B28	0.33 PBM z-score against 500 random probes
B29	3 PBM z-score against 500 random probes
B30	3.02 PBM z-score against 500 random probes
B31	3.01 PBM z-score against 500 random probes
B32	0.42 PBM z-score against 500 random probes
B33	3.02 PBM z-score against 500 random probes
